Where two headings read alike, the source gives them in different places.

Experimental findings from patent US10131702B2, “Glucagon-GLP-1-GIP triple agonist compounds” (priority 2013, dated 2018) are described below.

Common to all, as to test: cell-based or functional assay
For assay [1], the target named is T1, human GIP receptor (human, UniProt P48546 22-466).
T1 sequence: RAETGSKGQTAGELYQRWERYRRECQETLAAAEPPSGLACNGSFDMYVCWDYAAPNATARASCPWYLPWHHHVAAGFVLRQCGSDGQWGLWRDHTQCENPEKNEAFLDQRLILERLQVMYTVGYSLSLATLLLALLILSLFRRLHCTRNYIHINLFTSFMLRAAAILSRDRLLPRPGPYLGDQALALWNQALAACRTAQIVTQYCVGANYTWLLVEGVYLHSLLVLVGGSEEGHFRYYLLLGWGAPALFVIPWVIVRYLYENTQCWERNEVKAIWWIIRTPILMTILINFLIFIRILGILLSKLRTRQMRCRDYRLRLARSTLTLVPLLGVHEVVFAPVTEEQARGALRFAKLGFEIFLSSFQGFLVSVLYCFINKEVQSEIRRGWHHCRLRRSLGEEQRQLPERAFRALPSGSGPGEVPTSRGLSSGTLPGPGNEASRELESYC

The target of assay [2] is T2, human glucagon-like peptide 1 receptor (human, UniProt P43220 24-463).
Assay [3] deals with T3, human glucagon receptor (human, UniProt P47871 26-477).
T3 sequence (P47871 26-477): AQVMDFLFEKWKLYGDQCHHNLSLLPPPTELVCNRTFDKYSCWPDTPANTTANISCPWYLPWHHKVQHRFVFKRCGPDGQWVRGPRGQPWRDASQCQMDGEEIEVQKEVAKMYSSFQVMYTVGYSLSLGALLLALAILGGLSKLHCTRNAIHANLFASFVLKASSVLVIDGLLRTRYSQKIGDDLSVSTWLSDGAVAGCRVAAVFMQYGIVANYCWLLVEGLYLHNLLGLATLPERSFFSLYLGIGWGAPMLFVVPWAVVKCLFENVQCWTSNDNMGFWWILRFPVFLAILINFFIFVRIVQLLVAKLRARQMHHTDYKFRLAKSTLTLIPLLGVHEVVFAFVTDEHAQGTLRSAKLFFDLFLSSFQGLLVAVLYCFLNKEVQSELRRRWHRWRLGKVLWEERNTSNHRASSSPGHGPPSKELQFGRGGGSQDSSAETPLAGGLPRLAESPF
Assay [4] concerns the target T1, human GIP receptor. This is another data set of the same source.
The target in assay [5] is T2, human glucagon-like peptide 1 receptor. This is another data set of the same source.
The target of assay [6] is T3, human glucagon receptor. This is another data set of the same source.

B1: Compound 21 (peptide)
peptide: YAQGTFTSDYSKALDEKAAKEFVEWLLSA
HELM: PEPTIDE1{Y.[Aib].Q.G.T.F.T.S.D.Y.S.K.A.L.D.E.K.A.A.K.E.F.V.E.W.L.L.S.A.[am]}$$$$V2.0
SMILES: CC(C)C[C@H](NC(=O)[C@H](C)NC(=O)[C@H](CCCCN)NC(=O)[C@H](CO)NC(=O)[C@H](Cc1ccc(O)cc1)NC(=O)[C@H](CC(=O)O)NC(=O)[C@H](CO)NC(=O)[C@@H](NC(=O)[C@H](Cc1ccccc1)NC(=O)[C@@H](NC(=O)CNC(=O)[C@H](CCC(N)=O)NC(=O)C(C)(C)NC(=O)[C@@H](N)Cc1ccc(O)cc1)[C@@H](C)O)[C@@H](C)O)C(=O)N[C@@H](CC(=O)O)C(=O)N[C@@H](CCC(=O)O)C(=O)N[C@@H](CCCCN)C(=O)N[C@@H](C)C(=O)N[C@@H](C)C(=O)N[C@@H](CCCCN)C(=O)N[C@@H](CCC(=O)O)C(=O)N[C@@H](Cc1ccccc1)C(=O)N[C@H](C(=O)N[C@@H](CCC(=O)O)C(=O)N[C@@H](Cc1c[nH]c2ccccc12)C(=O)N[C@@H](CC(C)C)C(=O)N[C@@H](CC(C)C)C(=O)N[C@@H](CO)C(=O)N[C@@H](C)C(N)=O)C(C)C
In the case of B1, the “EC50 (cAMP induction)” value with human GIP receptor [1] worked out at 0.18 nM; in assay [2], 0.014 nM; with human glucagon receptor [3] it was 0.1 nM; in the assay with human GIP receptor [4], 0.015 nM; in assay [5] it was 0.1 nM; in the assay with human glucagon receptor [6], 0.1 nM.

B2: Compound 22 (peptide)
peptide: YAQGTFTSDYSKYLEKKAQKEFVEWLLSA
HELM: PEPTIDE1{Y.[Aib].Q.G.T.F.T.S.D.Y.S.K.Y.L.E.K.K.A.Q.K.E.F.V.E.W.L.L.S.A.[am]}$$$$V2.0
SMILES: CC(C)C[C@H](NC(=O)[C@H](CC(C)C)NC(=O)[C@H](Cc1c[nH]c2ccccc12)NC(=O)[C@H](CCC(=O)O)NC(=O)[C@@H](NC(=O)[C@H](Cc1ccccc1)NC(=O)[C@H](CCC(=O)O)NC(=O)[C@H](CCCCN)NC(=O)[C@H](CCC(N)=O)NC(=O)[C@H](C)NC(=O)[C@H](CCCCN)NC(=O)[C@H](CCCCN)NC(=O)[C@H](CCC(=O)O)NC(=O)[C@H](CC(C)C)NC(=O)[C@H](Cc1ccc(O)cc1)NC(=O)[C@H](CCCCN)NC(=O)[C@H](CO)NC(=O)[C@H](Cc1ccc(O)cc1)NC(=O)[C@H](CC(=O)O)NC(=O)[C@H](CO)NC(=O)[C@@H](NC(=O)[C@H](Cc1ccccc1)NC(=O)[C@@H](NC(=O)CNC(=O)[C@H](CCC(N)=O)NC(=O)C(C)(C)NC(=O)[C@@H](N)Cc1ccc(O)cc1)[C@@H](C)O)[C@@H](C)O)C(C)C)C(=O)N[C@@H](CO)C(=O)N[C@@H](C)C(N)=O
Regarding B2, the “EC50 (cAMP induction)” value was found to be 0.18 nM in the assay with human GIP receptor [1]; 0.028 nM in assay [2]; 0.76 nM in the assay with human glucagon receptor [3]; 0.03 nM with human GIP receptor [4]; 0.76 nM in assay [5]; 0.76 nM with human glucagon receptor [6].

B3: Compound 23 (peptide)
peptide: YAQGTFTSDYSIYLEKKAAKEFVEWLLSA
HELM: PEPTIDE1{Y.[Aib].Q.G.T.F.T.S.D.Y.S.I.Y.L.E.K.K.A.A.K.E.F.V.E.W.L.L.S.A.[am]}|PEPTIDE2{[CCCCCCCCCCCCCCCC(=O)[*:2]].[gGlu]}$PEPTIDE1,PEPTIDE2,17:R3-2:R2$$$V2.0
SMILES: CCCCCCCCCCCCCCCC(=O)N[C@@H](CCC(=O)NCCCC[C@H](NC(=O)[C@H](CCCCN)NC(=O)[C@H](CCC(=O)O)NC(=O)[C@H](CC(C)C)NC(=O)[C@H](Cc1ccc(O)cc1)NC(=O)[C@@H](NC(=O)[C@H](CO)NC(=O)[C@H](Cc1ccc(O)cc1)NC(=O)[C@H](CC(=O)O)NC(=O)[C@H](CO)NC(=O)[C@@H](NC(=O)[C@H](Cc1ccccc1)NC(=O)[C@@H](NC(=O)CNC(=O)[C@H](CCC(N)=O)NC(=O)C(C)(C)NC(=O)[C@@H](N)Cc1ccc(O)cc1)[C@@H](C)O)[C@@H](C)O)[C@@H](C)CC)C(=O)N[C@@H](C)C(=O)N[C@@H](C)C(=O)N[C@@H](CCCCN)C(=O)N[C@@H](CCC(=O)O)C(=O)N[C@@H](Cc1ccccc1)C(=O)N[C@H](C(=O)N[C@@H](CCC(=O)O)C(=O)N[C@@H](Cc1c[nH]c2ccccc12)C(=O)N[C@@H](CC(C)C)C(=O)N[C@@H](CC(C)C)C(=O)N[C@@H](CO)C(=O)N[C@@H](C)C(N)=O)C(C)C)C(=O)O
In the case of B3, the “EC50 (cAMP induction)” value with human GIP receptor [1] was 0.13 nM; in assay [2] it was 0.11 nM; with human glucagon receptor [3], 0.14 nM; in the assay with human GIP receptor [4], 0.11 nM; in assay [5] it was 0.14 nM; in the assay with human glucagon receptor [6], 0.14 nM.

B4: Compound 19 (peptide)
peptide: YAQGTFTSDYSIYLDKKAAHDFVEWLLSA
HELM: PEPTIDE1{Y.[Aib].Q.G.T.F.T.S.D.Y.S.I.Y.L.D.K.K.A.A.H.D.F.V.E.W.L.L.S.A.[am]}$$$$V2.0
SMILES: CC[C@H](C)[C@H](NC(=O)[C@H](CO)NC(=O)[C@H](Cc1ccc(O)cc1)NC(=O)[C@H](CC(=O)O)NC(=O)[C@H](CO)NC(=O)[C@@H](NC(=O)[C@H](Cc1ccccc1)NC(=O)[C@@H](NC(=O)CNC(=O)[C@H](CCC(N)=O)NC(=O)C(C)(C)NC(=O)[C@@H](N)Cc1ccc(O)cc1)[C@@H](C)O)[C@@H](C)O)C(=O)N[C@@H](Cc1ccc(O)cc1)C(=O)N[C@@H](CC(C)C)C(=O)N[C@@H](CC(=O)O)C(=O)N[C@@H](CCCCN)C(=O)N[C@@H](CCCCN)C(=O)N[C@@H](C)C(=O)N[C@@H](C)C(=O)N[C@@H](Cc1c[nH]cn1)C(=O)N[C@@H](CC(=O)O)C(=O)N[C@@H](Cc1ccccc1)C(=O)N[C@H](C(=O)N[C@@H](CCC(=O)O)C(=O)N[C@@H](Cc1c[nH]c2ccccc12)C(=O)N[C@@H](CC(C)C)C(=O)N[C@@H](CC(C)C)C(=O)N[C@@H](CO)C(=O)N[C@@H](C)C(N)=O)C(C)C
As to B4, the “EC50 (cAMP induction)” value worked out at 0.032 nM with human GIP receptor [1]; 0.013 nM in assay [2]; 0.024 nM with human glucagon receptor [3]; 0.013 nM with human GIP receptor [4]; 0.024 nM in assay [5]; 0.024 nM with human glucagon receptor [6].

B5: Compound 20 (peptide)
peptide: YAQGTFTSDYSIYLEKKAAKEFVEWLLSA
HELM: PEPTIDE1{Y.[Aib].Q.G.T.F.T.S.D.Y.S.I.Y.L.E.K.K.A.A.K.E.F.V.E.W.L.L.S.A.[am]}$$$$V2.0
SMILES: CC[C@H](C)[C@H](NC(=O)[C@H](CO)NC(=O)[C@H](Cc1ccc(O)cc1)NC(=O)[C@H](CC(=O)O)NC(=O)[C@H](CO)NC(=O)[C@@H](NC(=O)[C@H](Cc1ccccc1)NC(=O)[C@@H](NC(=O)CNC(=O)[C@H](CCC(N)=O)NC(=O)C(C)(C)NC(=O)[C@@H](N)Cc1ccc(O)cc1)[C@@H](C)O)[C@@H](C)O)C(=O)N[C@@H](Cc1ccc(O)cc1)C(=O)N[C@@H](CC(C)C)C(=O)N[C@@H](CCC(=O)O)C(=O)N[C@@H](CCCCN)C(=O)N[C@@H](CCCCN)C(=O)N[C@@H](C)C(=O)N[C@@H](C)C(=O)N[C@@H](CCCCN)C(=O)N[C@@H](CCC(=O)O)C(=O)N[C@@H](Cc1ccccc1)C(=O)N[C@H](C(=O)N[C@@H](CCC(=O)O)C(=O)N[C@@H](Cc1c[nH]c2ccccc12)C(=O)N[C@@H](CC(C)C)C(=O)N[C@@H](CC(C)C)C(=O)N[C@@H](CO)C(=O)N[C@@H](C)C(N)=O)C(C)C
For the molecule B5, the “EC50 (cAMP induction)” value in the assay with human GIP receptor [1] amounted to 0.047 nM; in assay [2] it was 0.0094 nM; in the assay with human glucagon receptor [3], 0.057 nM; with human GIP receptor [4] it was 0.009 nM; in assay [5], 0.057 nM; in the assay with human glucagon receptor [6], 0.057 nM.

B6: Compound 24 (peptide)
peptide: YAQGTFTSDYSIYLEKKAAKEFVEWLLSA
HELM: PEPTIDE1{Y.[Aib].Q.G.T.F.T.S.D.Y.S.I.Y.L.E.K.K.A.A.K.E.F.V.E.W.L.L.S.A.[am]}|PEPTIDE2{[CCCCCCCCCCCCCCCC(=O)[*:2]].[gGlu]}$PEPTIDE1,PEPTIDE2,16:R3-2:R2$$$V2.0
SMILES: CCCCCCCCCCCCCCCC(=O)N[C@@H](CCC(=O)NCCCC[C@H](NC(=O)[C@H](CCC(=O)O)NC(=O)[C@H](CC(C)C)NC(=O)[C@H](Cc1ccc(O)cc1)NC(=O)[C@@H](NC(=O)[C@H](CO)NC(=O)[C@H](Cc1ccc(O)cc1)NC(=O)[C@H](CC(=O)O)NC(=O)[C@H](CO)NC(=O)[C@@H](NC(=O)[C@H](Cc1ccccc1)NC(=O)[C@@H](NC(=O)CNC(=O)[C@H](CCC(N)=O)NC(=O)C(C)(C)NC(=O)[C@@H](N)Cc1ccc(O)cc1)[C@@H](C)O)[C@@H](C)O)[C@@H](C)CC)C(=O)N[C@@H](CCCCN)C(=O)N[C@@H](C)C(=O)N[C@@H](C)C(=O)N[C@@H](CCCCN)C(=O)N[C@@H](CCC(=O)O)C(=O)N[C@@H](Cc1ccccc1)C(=O)N[C@H](C(=O)N[C@@H](CCC(=O)O)C(=O)N[C@@H](Cc1c[nH]c2ccccc12)C(=O)N[C@@H](CC(C)C)C(=O)N[C@@H](CC(C)C)C(=O)N[C@@H](CO)C(=O)N[C@@H](C)C(N)=O)C(C)C)C(=O)O
For B6, the “EC50 (cAMP induction)” value in the assay with human GIP receptor [1] amounted to 0.1 nM; in assay [2], 0.091 nM; in the assay with human glucagon receptor [3], 0.28 nM; with human GIP receptor [4], 0.1 nM; in assay [5], 0.091 nM; with human glucagon receptor [6], 0.28 nM.
